This is an account of results in the DeepSol protein solubility set.

This data set is described as follows: soluble on expression in E. coli; label from the status in PepcDB or PDB records.
On to “AIAAKDILGEAGLHFDELNKLRVLDPEVTQQTIELKEECKDFVDKIGQFQKIVGGLIELVDQLAKEAENEKMKAIGARNLLKSIAKQREAQQQQLQALIAEKKMQLERYRVEYEALCKVEAEQNEFIDQFIFQK”, for which the “soluble on expression in E. coli” value is “soluble”.
As for “MLQALLDSKDFLALTLANPQTLGDEFSFTLGEHTRVNVWDTGVIVFEPAQPQGKDVILSCGVHGNETAPIELCNTLIKQLLQQKIIAKQRTLFLIGNPLAINNGTRIIDENMNRLFSGEHSNPPGLVNPERLRAKKLETYVDRFFKAAAAGRQRIHYDLHTAMRASKHEKFAIYPYRPGRAYSAEQIMFLAASGVDTVLFHHEPTTTFSYFSSEQYGADAFTIELGKVYPMGQNDMTRFIAAQEMFTRLITDKPLQLESFSTDKVNLYQVCRVINKHFDDFEFTFATDVENFRAFPKGFVLAREGGQEIKVEQEVESIVFPNAKVPIGNRTVICLIPSVAPDVRLEHHHHHH”, the entry is “soluble”; as for “MSLVKIKEVAMNIKINEIKMTPPTAFTPGQVIEEQEVISPSMLALQELQETTGAALYETMEEIGMALSGKLRENYKFTDAEKLERRQQALLRLIKQIQEDNGATLRPLTEENSDPDLQNAYQIIALAMALTAGGLSKKKKRDLQSQLDTLTAEEGWELAVFSLLELGEVDTATLSSLKRFMQQAIDNDEMPLSQWFRRVADWPDRCERVRILLRAVAFELSICIEPSEQSRLAAALVRLRRLLLFLGLEKECQREEWICQLPPNTLLPLLLDIICERWLFSDWLLDRLTAIVSSSKMFNRLLQQLDAQFMLIPDNCFNDEDQREQILETLREVKINQVLFEGHHHHHH”, “soluble”; as for “MGHHHHHHSHMSEPLCTSRPVLLPLNLKNIAPGRCISLTPFGHTDNLGFQCETCTDPNLNKSIPPKLEDPAFSKNELCSVTLTFYQQAEQVIQHKQFYLSLLNLSMDAVRNSLTQPGLLYCYLVTKAFMLEGFPIFFEETNGMLGLYLVFRRDLLHLHESYLRLLIDNLGNYDISVDSVGRSYIIKLCPVGNVSRIPTIPADNVCLAVNNLDYGDDVKASWIECFNIVSRLS”, “soluble”.
As for “MGSDKIHHHHHHMLLYIHGFNSSPFSDKAVITARYMAEYHPSLTFHQPQLPNTPKAAMALLQSYVEAAQQANEPLNYIGSSLGGYFASYLAERYGGRAVLVNPAVKPFELFDEFMGPQFNPYTQEHYQVLPEHKREVAEFNTPVIRNPERFLVLLQTGDEVLDYREALHKYHHCQLRIESGGDHSFVGYERYLQTVSQFLHLP”, the “soluble on expression in E. coli” value is reported as “not soluble”.
To “MGSDKIHHHHHHMKHIEDNAGSERKPLAGAAKSVPAVAADKPYHRKNLREDLLRSALELTVERDGPAFSLRELAMREKVSHTAVYRHFSDKASLFAELSSEGFRQLALYQNRTIEAPDLPPLARLEQMGATYVRFAMENVGFFRVMFDVNLAGEWEEARKGERTAFGNLVGLVRQCQSEGDIIDADPRAIATYLVLSPHGLAHFNNIGHLTHLLQTSMTLDQLATQVFRLTLAPFLTKPYSEQDVRALVNSIF” belongs “not soluble”.
As for “GNYHVTLQASYIAKNVEDVEDAIGVAISQIGKLLNKGSLDYVDIDVGLTICPKCGEPIDCVLVVAKTAIVGILLSMKVFNAESPEHAVRIAKSSIGRALKDIP”, the “soluble on expression in E. coli” value was “not soluble”.
“VDKRESYTKEDLLASGRGELFGAKGPQLPAPNMLMMDRVVKMTETGGNFDKGYVEAELDINPDLWFFGCHFIGDPVMPGCLGLDAMWQLVGFYLGWLGGEGKGRALGVGEVKFTGQVLPTAKKVTYRIHFKRIVNRRLIMGLADGEVLVDGRLIYTASDLKVGLFQDTSAF”: the “soluble on expression in E. coli” value is “soluble”.
For the sequence “TQPPQPDAQSPYSKRYDPTKDYPLSSPAGGMNNFSDVEPRGRLDEKAATDRADALAKNAQRNIEQKGIDSPEQYGRNYKQGTPFGERVKNLGEDIGSSANELGEGVVKGTQRGIENLKGNTQNAAEDATKNVQRGAEDAGRNVRRTADDAGNAVKRAVD”, the “soluble on expression in E. coli” value is listed as “not soluble”.
Regarding “MTTLNSTPRADGFHMPAEWAPQTQVWMVWPERPDNWRLGGKPAQAAHVAIAKAIARFEPVTVAVSAAQYDNARARLDMPNIRVVEMSSNDAWVRDSGPTFVINDRGELRGVNWEFNAWGGFDGGLYAPWNLDSQVGSKVLEIERCPRYATQGFVLEGGSIHVDGEGTLITTEECLLNRNRNPHLTREQIEAVLSDYLAVDKIIWLPDGLFNDETDGHVDNFCCYIRPGEVLLAWTDDPEDPNYPRCHAALSILENTRDAQGRAFIVHKMPIPGPLFATEEECAGVDQVHGSQERNPSVRLAGSYVNFLIVNGGIIAPSFDDPMDEKAREILQKLFPEHEVVMAPGRELLLGGGNIHCLTQQQPAPFKALEHHHHHH”, the “soluble on expression in E. coli” value is reported as “soluble”.
To “RRNINVVLHEDSKALDEVVIVGYGKQKKESVVVSMSSIKPKDIVVPSRSLNNSLAGQVAGLIAVQRSGEPGYDNAEFWIRGVSTFAGGTSPLVLVDGVPRNMSDIEPDEIETFSVLKDAAATAIYGAEGANGVVLVTTKRGRVEK” belongs “not soluble”.
As for “MSLTLKTTEDLFQQSLHEYTITHAIEDKNVLRFHVDYYKPDGKSTPKPGETLAKRAVVDAILSKHDAATGGRRFNAILATASINDAIGYFGLFKTAQAEKQRVEPGYVPLNIAAVFSPPSDVSADVRQLQEDLPQEQEDNKKDSDAKKAALKAIIGDYNTRFGTNHRIEEFDAYYQDVQQRIKDQQFPNADLPDKGREKLDIVIVVDMLLTGFDSKYLNTLYVDKNLKYHGLIQAFSRTNRVLNDTKPYGNILDFRGQQKEVDAAIALFSGAKADKAREIWLVDTAPVVIDKLKEARGSLDSFLASQGLGGKPEDIANLKGTAAKVAFIKHFKDVQKLQTQLDQYTDLTAEQQAQVEAILPKDELRSFRGQYLQKAEELRADQKKAGEGHHHHHH”, the entry is “soluble”.
As for “MSLDKPVIKISTENVDLIYRVGDNGRLYQSYLGKRLNHATDIAHLPQGSEAYLTHGMEDYFEPAIHIVHNDGNPSTLLKYVSHTRNQVSPGVDEVVITMQDDKYPVTVKLHYVAYQKENLIKTFTEISHREKKPVQLHKYASSMLHLNRANYFLTEFSGDWASEAHVKEQPLEFGKKTIDTKLGARANMFCSPFFQLALDGKSEENQGEVLVGTLGWTGNFSFVFEVDNKNELRVISGINPYASEYSLKPNEIFRTPDFYFTYSFKGKGQASRNFHDWARKYQVKDGNQTRMTLLNNWEATYFDFDEAKLVKLMDDAVELGVDMFLLDDGWFANKYPRSGDHQGLGDWDETADKLPHGIGYLTEAAKKKGIKFGIWIEPEMVNPKSELYEKHKDWVIHLPNRDEYYFRNQLVLDLSNPKVQDYVFGVVDNLMTKYPDIAFFKWDCNSPITNIYSVYLKDKQSHLYIDYVRGLYNVLERVKAKYPDLPMMLCSGGGGRSDYEALSYFTEFWPSDNTDPIERLFIQWGFSQVFPAKTMCAHVTTWNKNSSVKFRTDVAMMCKLGFDIKLADMSKDDETYCRTAVQNYNRLKPVVLEGDMYRLVSPYGSNHTSTMYVGKDKDKAVVFAFDIHPRYAEKILPVRLQGLDADKMYRVKEINLMPGANSEGHHHHHH”, the entry is “not soluble”; as for “SEEVEAEEPQEFSHRQRLKAAVHYTVGCLCQEVTLNKQVNFSKQTIAAISEVTFRQCENFAKDLEMFARWVEKLAV”, “soluble”.
As to “MGSDKIHHHHHHMEIVFVYDAVYPWTKGGVERRLHEVGRRLSNEHNVKWLCVGWWGKEKRIQEGVELIPVCKAQQLYSRGRRTIREAMIFAASLLKKSRIKADVIDCQVFPYLSVFPFATRKELVLTWHEFWGDYWYEYLGKAGFFGKAVERIVAKLKARTIAVSETTRKALESLGIRATVIPNGVDFPRISEIPASSEEWDVIFVGRLIREKNLELLFDAMKLLPELNCLVVGDGPERERLSKIAPANVDFGGSLGYEEVISMMKSSKVFAIPSRREGFGISALEANACGLPVVTIRHQMNAVVEIAEKTGFVAEPHARDFAEKIRLALEMRREMREKCINFAKNFDWEVIARRLEEFYEGVHSPPNEGRAE”, the “soluble on expression in E. coli” value is “not soluble”.
